Assay results from the nanobody polyreactivity screen of Harvey et al. (2022).

Experiment: yeast display, Sf9 membrane polyspecificity reagent, FACS + sequencing; frameworks hold sequencing errors
Method in brief: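 In a synthetic yeast display library (Saccharomyces cerevisiae BJ5465), nanobody expression was induced with galactose for 36–48 hours. FACS gates were set low and high (top ~1%) using anti-HA fluorescence for expression and streptavidin fluorescence for binding of the Sf9 membrane reagent. Each polyreactivity label is drawn from the gate of origin.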

Row | Sequence | polyreactivity (PSR sort gate)
1 | QVQLVESGGGLVQAGGSLRLSCAASGSIFLPYAMGWYRQAPGKERELVAAITWGGDSTYADSVKGRFTISRDNAKNTVYLQMNSLKPEDTAVYYCAAGAGFESDYWGQGTQVTVSS | low polyreactivity
2 | QVQLVESGGGLVQAGGSLRLSCAASGSIFLRIAMGWYRQAPGKERELVARIRGGGSTYYADSVKGRFTISRDNAKNTVYLQMNSLKPEDTAVYYCAKDYYKYADGYDYWGQGTQVTVSS | high polyreactivity
3 | QVQLVESGGGLVQAGGSLRLSCAASGSIFLRYAMGWYRQAPGKERELVAAISGRGGSTYYADSVKGRFTISRDNAKNTVYLQMNSLKPEDTAVYYCAAYRGRSLEYDYWGQGTQVTVSS | high polyreactivity
4 | QVQLVESGGGLVQAGGSLRLSCAASGSIFLRYTMGWYRQAPGKETEFVAAITWTADSTYYADSVKGRFTISRDNAKNTVYLQMNSLKPEDTAVYYCAASYSTIWTLYYYWGQGTQVTVSS | low polyreactivity
5 | QVQLVESGGGLVQAGGSLRLSCAASGSIFLSYNMGRYRQAPGKERELVAAITSGGSTKYADSVKGRFTISRDNAKNTVYLQMNSLKPEDTAVYYCNATPYSRLGYWGQGTQVTVSS | high polyreactivity
6 | QVQLVESGGGLVQAGGSLRLSCAASGSIFLVNALGWYRQAPGKERELVAAISWSGGSTYYAESVKGRFTISRDNAKNTVYLQMKSLKPEDTAVYYCAADWFAANYYVNTVSALDYWGLGTQVTVSS | low polyreactivity
7 | QVQLVESGGGLVQAGGSLRLSCAASGSIFLVYAMGWYRQAPGKERELVAAISQRVGRTYYADSVKGRFTISRDNAKNTVYLQMNSLKPEDTAVYYCNARVYDPTRGFNYWGQGTQVTVSS | high polyreactivity
8 | QVQLVESGGGLVQAGGSLRLSCAASGSIFLVYAMGWYRQAPGKERELVAVISRGGITNYADSVKGRFTISGDNAKNTVYLQMNSLKPEDTAVYYCAAEPRPSWSRYTYGYWGQGTQVTVSS | low polyreactivity
9 | QVQLVESGGGLVQAGGSLRLSCAASGSIFLYNAMGWYRQAPGKERELVATITSSTGSTYYADSVKGRFTISRDNAKNTVYLQMNSLKPEDTAVYYCATRESRRQRRYYYWGQGTQVTLSS | high polyreactivity
10 | QVQLVESGGGLVQAGGSLRLSCAASGSIFLYYAMGWYRQAPGKERELVAGIRRGGRTNYADSVKGRFTISRDNAKNTVYLQMNSLKPEDTAVYYCAKGGYWGQGTQVTVSS | high polyreactivity
11 | QVQLVESGGGLVQAGGSLRLSCAASGSIFLYYAMGWYRQAPGKERELVATITKGGGSTYYADSVKGRFTISRDNAKNTVYLQMNSLKPEDTAVYYCAADAAHSEYDYWGQGTLVTVSS | high polyreactivity
12 | QVQLVESGGGLVQAGGSLRLSCAASGSIFNANAMGWYRQAPGKEWELVARITRGGRTNYADSVKGRFTISRDNAKNTVYLQMNSLKPEDTAVYYCAAVYYVGFPHKYDYWGQGTQVNVSS | low polyreactivity
13 | QVQLVESGGGLVQAGGSLRLSCAASGSIFNAYVMGWYRQAPGKERELVAAISRSGGRTYYADSVKGRFTISRDNAKNTVYLQMNSLKPEDNAVYYCAADYGGPYGQLDYWGQGTQVTVSS | high polyreactivity
14 | QVQLVESGGGLVQAGGSLRLSCAASGSIFNGNAMGWYRQAPGKERELVAAISRNGGSTYYADSVKGRFTISRDNAKNTVYLQMNSLKPEDTAVYYCAVRKRPHGYLAFGYWGQGTQVTVSS | low polyreactivity
15 | QVQLVESGGGLVQAGGSLRLSCAASGSIFNGNAMGWYRQAPGKERELVAAISRNRGSTYYADSVKGRFTISRDNAKNTVYLQMNSLKPEDTAVYYCPTDLTVYYSYYWMYWGQGTQVTVSS | low polyreactivity
16 | QVQLVESGGGLVQAGGSLRLSCAASGSIFNGNAMGWYRQAPGKERELVAAITRRGGRTYYADSVKGRFTISRDNAKNTVYLQMNSLKPDDTAVYYCNAYSKAVQGGYDYWGQGTQVTVSS | high polyreactivity
17 | QVQLVESGGGLVQAGGSLRLSCAASGSIFNGYVMGWYRQAPGKERELVAAISGSGGRTYYADSVKGRFTISRDNAKNTVYLQMNSLKPEDTAVYYCAAYPDLRDSRRIRYGYNYWGQGTQVTVSS | high polyreactivity
18 | QVQLVESGGGLVQAGGSLRLSCAASGSIFNGYVMGWYRQAPGKERELVASINRGGTTNYADSVKGRFTISRDNAKNTVYLQMNSLKPEDTAVYYCAVDDDANSLGGYYVLFDYWGQGTQVTVSS | low polyreactivity
19 | QVQLVESGGGLVQAGGSLRLSCAASGSIFNHYAMGWYRQAPGKERELVATITDGGSTYYADSVKGRFTISRDNAKNTVYLQMNSLKPEDTAVYYCATDRRRFWVIYYYWGQGTQVTVSS | low polyreactivity
20 | QVQLVESGGGLVQAGGSLRLSCAASGSIFNINAMGWYRHAPGKERELVAVITSRDGRTYYADSVKGRFTISRDNAKNTVYLQMNSLKPEDTAVYYCAADVVNRHYYFWGQGTQVTVSS | low polyreactivity
21 | QVQLVESGGGLVQAGGSLRLSCAASGSIFNIYDMGWSRQAPGKERELVAGISWDGDSTYYADSVKGRFTISRDNAKNTVYLQMNSLKPEDTAVEYCAAVYTRAHISYYYWGQGTQVTVSS | high polyreactivity

Row | Sequence | polyreactivity (PSR sort gate)
22 | QVQLVESGGGLVQAGGSLRLSCAASGSIFNKYAMGWYRQAPGKERELVAAISVSGTRTYYADSVKGRFTISRDTAKNTVYLQMNSLKPEDTAVYYCATKFFRTAYEYWGQGTQVTVSS | high polyreactivity
23 | QVQLVESGGGLVQAGGSLRLSCAASGSIFNLYAMGWYRQAPGKERELVAGIRWSGGRTYYADSVKGRFTISRDNAKYTVYLQMNSLKPEDTAVYYCAAEYRSWRYTGYSYYYWGQGTQVTVSS | high polyreactivity
24 | QVQLVESGGGLVQAGGSLRLSCAASGSIFNNNAMGWYRQAPGKERELVADITASGGNTNYADSVKGRFTISRDNAKNTVYLQMNSLKPEDTAVYYCNAGGFYGTLFFPLDIYYVGYDYWGQGTQVTVSS | low polyreactivity
25 | QVQLVESGGGLVQAGGSLRLSCAASGSIFNPNAMGWYRQAPGKERELVAAISYSDATTYYADSVKGRFTISRDNAKNTVYLQMNSLKPEDTAVYYCAAEPAAGDYDYWGQGTQVTVSS | high polyreactivity
26 | QVQLVESGGGLVQAGGSLRLSCAASGSIFNQYPMGWYRQAPGKERELVAAISSGSTYYADSVKGRFIISRDNAKITVYLQMNSMKAEDTAVNNCAKDRHSPYWAMDYWGQGTQVTVSS | high polyreactivity
27 | QVQLVESGGGLVQAGGSLRLSCAASGSIFNRYAMGLYRQAPVKERELVAAISSTGSTYYADSVKGRFTISRDNAKNTVYLQMNSLKPEDTAVYYCATDDPLSQINEQGMDYWGQGTQVTVSS | low polyreactivity
28 | QVQLVESGGGLVQAGGSLRLSCAASGSIFNRYAMGWYRPAPGKEREFVARISKRGGGTYYADSVKGRFTISRDNAKNTVYLQMNSLKPEDTAVYYCAARAYDHTGHVGFDYWGQGTQVTVSS | high polyreactivity
29 | QVQLVESGGGLVQAGGSLRLSCAASGSIFNRYTMGWYRQAPGKERELVAAISKRGGSTYYADSVKGRFTISRDNAKNTVYLQMNSLKPEDSAVYYCAAAAYHSGNGGGYWGQGTQVSVSS | high polyreactivity
30 | QVQLVESGGGLVQAGGSLRLSCAASGSIFNSNGMGWYRPAPGKERELVAAITGGGSTNYADSVKGRFTISRDNAKNTVYLQMNSLKPEDTAVYYCAARPLRTDWAYYYWGQGTQVTVSS | low polyreactivity
31 | QVQLVESGGGLVQAGGSLRLSCAASGSIFNSYAMGWYRQAPGKERELVAAIRWSGGRTYYADSVKGRFTISRDNAKNTVYLQMNSLKPEDTAVYYCNVVSPGRVNYWGQGTQVTVSS | high polyreactivity
32 | QVQLVESGGGLVQAGGSLRLSCAASGSIFNSYAMGWYRQAPGKERELVAAISRSGGRTYYADSVKGRFTISRDNAKNTVYLQMNSLKPEDTAVYYCAADAGSYLSYKAWARKMYYLGQGTQVTVSS | high polyreactivity
33 | QVQLVESGGGLVQAGGSLRLSCAASGSIFNVYAMGWYRQAPGKERELVAAISSSGARTYYADSVKGRFTISRDNAKNTVYLQMNSLKPEDTAVYYCAARSILIRSGGGYPSVWRNYWGQGTQVTVSS | high polyreactivity
34 | QVQLVESGGGLVQAGGSLRLSCAASGSIFNVYVMGWYRQAPGKERELVAAITWSGGTTYYADSVKGRFTISRDNAKNTVYLQMNSLKPEDTAVYYCAAEVWYFYDGYDYWGQGTQVTVSS | high polyreactivity
35 | QVQLVESGGGLVQAGGSLRLSCAASGSIFNWYAMGWYRQAPGNERELVADISWSDGDTYYADSVKGRFSISRDNAKNTDYLQMNSLKPEDTAVYYSAAASNLYYPYYVLGDPYDYWGQGTQVTVSS | low polyreactivity
36 | QVQLVESGGGLVQAGGSLRLSCAASGSIFNYNAMGWYRQAPGKERELVATINKRAGRTYYADSVKGRFTISRDNAKNTVYLQMNSLKPEDTAVYYCAALHSGRVQNFDYWGQGTQVTVSS | high polyreactivity
37 | QVQLVESGGGLVQAGGSLRLSCAASGSIFNYNMGLYRQAPGKERELVAAVSTNYADSVKGRFTISRDNAKNTVYLQMNSLKPEDYAVYYCGVTPEKSGDEYDNWGQGTQVTVSS | low polyreactivity
38 | QVQLVESGGGLVQAGGSLRLSCAASGSIFNYYAMGWYRQAPGKEREFVAAISWRGGSTYYADSVKGRFTISRDNAKNTVYLQMNRLKPEDTAVYYCNARVYGVYRRRVNYWGQGTQVTVSS | high polyreactivity
39 | QVQLVESGGGLVQAGGSLRLSCAASGSIFNYYAMGWYRQAPGKERELVAGITTSGGSTYYADSVKGRFTISRDNAKNTVYLQMISLKPEDTAVYYCAAYDYISSTYFLDDYWGQGTQVSVSS | low polyreactivity
40 | QVQLVESGGGLVQAGGSLRLSCAASGSIFPDYAMGWYRQAPGKERELVAAITWRDDSTYYADSVKGRFTISRDNAKNTVYLQMNSLKPEDTAVYYCNASALDPLYAKDDYWGQGTQVTVSS | low polyreactivity
41 | QVQLVESGGGLVQAGGSLRLSCAASGSIFPENAMGWYRQAPGKERELVAAINRGGSTYYADSVKGRFTISRDNAKNTVYLQMNSLKPVDTAVYYCAAEYSGWGYIFNYWGQGTQVTVSS | low polyreactivity
